From patent US20150337308, “MATRIX METALLOPROTEINASE 9 (MMP-9) APTAMER AND USES THEREOF” (CHU DE BORDEAUX, published 2015)

Tests used:
[1] = biological target: T1, hMMP-9 (gelatinase B) (Homo sapiens, UniProt P14780 P14780:107-707); assay: SPR; no detectable signal; details: tags: Calbiochem
Procedure: (§1) Surface Plasmon Resonance (SPR) experiments were performed on a BIAcore™ 3000 apparatus (Biacore AB, Sweden). 2 μg of hMMP-9 protein were injected on a carboxymethylated dextran CM5 sensorchip for immobilisation and aptamers F3B, F3C1 and F3C2 were injected at 200 nM (20 μl/min) in SP buffer. Alternatively CM5 sensorchips were functionalized with streptavidin. 3′ end biotinylated F3B and F3Bomf were immobilised on the functionalized CM5 and hMMP-9 protein at 100 nM in SP buffer was injected. hMMP-9 was injected at different concentrations (from 5 to 160 nM) in PBS buffer. In another series of experiments 3′end biotinylated aptamer F3Bomf was immobilized and hMMP-9, pro-hMMP-9, mouse pro-MMP-9, human MMP-2 or MMP-7 proteins were injected at 50 nM in PBS buffer. SPR experiments were performed at 23° C., at 20 μl/min, and the complexes were dissociated with a pulse of a solution containing 40% formamide/3.6 M urea/30 mM EDTA (42).
Next we optimized the F3B chemistry in the perspective of its use in biological media. […] However the equilibrium constant was evaluated to be in the low nanomolar range. […] In contrast, F3Bomf was able to discriminate between the human and the murine zymogen pro-MMP-9: a weak signal (49 RU) to the mouse pro-MMP-9 was detected, compared to about 1 300 RU with the human proenzyme.

[2] = biological target: T2, hMMP-7 (Homo sapiens, UniProt P09237 P09237:95-267); assay: filter; no retention; details: label: 32P 5' end; imperfect hairpin
T2 sequence: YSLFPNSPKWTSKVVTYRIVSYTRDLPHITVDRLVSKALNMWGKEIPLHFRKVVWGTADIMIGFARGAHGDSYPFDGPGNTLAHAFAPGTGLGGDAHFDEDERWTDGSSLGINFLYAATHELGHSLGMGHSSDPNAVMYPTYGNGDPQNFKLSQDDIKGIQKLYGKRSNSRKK

[3] = biological target: T3, pro-hMMP-7 (Homo sapiens, UniProt P09237 P09237:18-267); assay: filter; no retention; details: label: 32P 5' end; imperfect hairpin
T3 sequence: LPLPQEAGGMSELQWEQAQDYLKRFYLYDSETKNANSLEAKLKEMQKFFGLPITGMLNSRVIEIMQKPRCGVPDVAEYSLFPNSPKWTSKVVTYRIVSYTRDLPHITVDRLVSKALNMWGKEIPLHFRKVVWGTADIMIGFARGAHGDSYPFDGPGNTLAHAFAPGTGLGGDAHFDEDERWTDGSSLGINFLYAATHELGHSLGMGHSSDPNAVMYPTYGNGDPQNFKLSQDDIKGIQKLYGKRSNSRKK

[4] = biological target: T1, hMMP-9 (gelatinase B); assay: filter; SP buffer (5 mM CaCl2, 1 mM Mg acetate), 23 C; details: tags: Calbiochem; label: 32P 5' end; imperfect hairpin
Procedure: The dissociation constant (Kd) of the complexes, formed by the aptamers and the hMMP-9 protein, was determined using the filter retention method. 1 nM of ³²P 5′end-labeled aptamer was incubated with increasing concentrations of hMMP-9 (10, 20, 40, 72, 160, 320, 500 nM) for 20 min at 23° C. in 20 μl SP buffer. Complexes were filtered and the radioactivity retained on the filter was quantified using a scintillation counter (LS 6000 IC, Beckman). Kd values were deduced from data point fitting with Kaleidagraph 3.0 (Abelbeck software), according to the equation: B=(Bmax[L]₀)/([…]), where B is the proportion of complex, Bmax is the maximum of complex formed and [L]₀ is the total concentration of unlabeled ligand.

[5] = biological target: T2, hMMP-7; assay: SPR; 50 nM protein, PBS; details: label: 3' biotin; hairpin
Procedure: as §1

[6] = biological target: hMMP-2 (gelatinase A) (Homo sapiens, UniProt P08253 P08253:110-660); assay: SPR; 50 nM protein, PBS; details: label: 3' biotin; hairpin
hMMP-2 (gelatinase A), sequence (P08253 110-660, one chain of several): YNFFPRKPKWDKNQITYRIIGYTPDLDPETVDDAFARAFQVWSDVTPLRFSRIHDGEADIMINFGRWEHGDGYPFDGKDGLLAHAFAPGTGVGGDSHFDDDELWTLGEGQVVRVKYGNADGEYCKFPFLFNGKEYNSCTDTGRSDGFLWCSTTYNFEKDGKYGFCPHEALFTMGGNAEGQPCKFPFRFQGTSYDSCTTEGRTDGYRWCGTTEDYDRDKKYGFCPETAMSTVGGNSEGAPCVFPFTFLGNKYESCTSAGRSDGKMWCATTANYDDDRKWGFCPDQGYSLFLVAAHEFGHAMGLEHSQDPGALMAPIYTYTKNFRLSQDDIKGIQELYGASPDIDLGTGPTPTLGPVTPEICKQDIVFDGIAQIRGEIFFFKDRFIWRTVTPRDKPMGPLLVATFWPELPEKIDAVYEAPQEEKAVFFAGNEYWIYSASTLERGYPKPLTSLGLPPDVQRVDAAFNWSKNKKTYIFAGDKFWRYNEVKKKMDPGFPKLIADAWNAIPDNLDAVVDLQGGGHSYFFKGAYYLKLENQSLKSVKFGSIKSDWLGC
Procedure: as §1

T1 sequence (P14780 107-707, one chain of several): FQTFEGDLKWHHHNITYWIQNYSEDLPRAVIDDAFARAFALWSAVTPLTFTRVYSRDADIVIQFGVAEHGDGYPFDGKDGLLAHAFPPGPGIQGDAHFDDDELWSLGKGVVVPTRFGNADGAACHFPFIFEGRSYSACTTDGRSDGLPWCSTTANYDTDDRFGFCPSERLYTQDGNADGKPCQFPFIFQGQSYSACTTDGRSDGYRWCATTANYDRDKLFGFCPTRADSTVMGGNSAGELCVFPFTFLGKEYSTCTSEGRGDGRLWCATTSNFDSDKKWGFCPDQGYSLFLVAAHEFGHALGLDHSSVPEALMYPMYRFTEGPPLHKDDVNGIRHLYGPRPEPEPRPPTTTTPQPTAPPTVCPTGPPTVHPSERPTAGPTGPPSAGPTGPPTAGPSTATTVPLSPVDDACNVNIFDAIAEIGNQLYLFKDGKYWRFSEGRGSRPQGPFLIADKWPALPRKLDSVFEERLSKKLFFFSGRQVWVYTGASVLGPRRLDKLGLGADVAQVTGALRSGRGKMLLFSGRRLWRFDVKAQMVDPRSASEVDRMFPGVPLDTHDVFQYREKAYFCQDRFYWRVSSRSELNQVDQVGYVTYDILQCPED

B1: control scrambled sequence (XNA)
RNA: UGCCAAACGCGUCCCCUUUGCCCGGCCUCCGCCGCA
modifications: 2'-F pyrimidines, 2'-OMe purines
Q: Does B1 bind [1]?
A: Result: no binding

B2: F3 (ssRNA)
RNA: GGUUACCAGCCUUCACUGCCCUGCCCUCACCCGUUAGCCUGAGCGCCCCGCACCACGGUCGGUCACAC
modifications: 2'-F pyrimidines, 2'-OH purines
Q: Does B2 bind [2]?
A: Result: no binding

Q: Does B2 bind [3]?
A: Result: no binding

Q: What about the Kd [4] of the same binder?
A: Its Kd is 8.1 nM.

B3: F3Bomf (XNA)
RNA: UGCCCUGCCCUCACCCGUUAGCCUGAGCGCCCCGCA
modifications: 2'-F pyrimidines, 2'-OMe purines
Q: Does B3 bind [5]?
A: Result: no binding

Q: Does B3 bind [6]?
A: Result: no binding
